Results on 99 substances are retold here after the supplement of paper PMC12042874.

± gives the uncertainty stated by the source.

A short description of the data set: amyloid nucleation score (Sup35N fusion, yeast selection) (log enrichment); library NNK3; higher = more nucleation; inactive = no reads after selection. The method, boiled down:
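Plasmid inserts were Illumina-sequenced at input and output from psi-negative yeast expressing Sup35N fused to peptides of 20 random codons. The yeast were induced with 100 μM copper sulfate for 24 hours and grown 7 days at 30°C on medium lacking adenine and uracil, and sequences with under 100 input reads were excluded. Nucleation score is the DiMSum log enrichment of output over input reads, centred on the mode score of non-aggregating sequences.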

On to KVLMST, for which the amyloid nucleation score is -0.443 ± 1.4.

For the substance WGTVMTLSCVALEVYFSLRV, the amyloid nucleation score entry was “inactive”.

With ALVSK, the amyloid nucleation score entry was “inactive”.

Substance QLNGCYCQFWMMKARTTKFH showed an amyloid nucleation score of 2.86 ± 0.054.

For VCSVVARWFVESFCCISWMC, the amyloid nucleation score result was “inactive”.

For SLIVQAL, the amyloid nucleation score entry is “inactive”.

Take VTPSTGRSIVVTPGTYIARV: the amyloid nucleation score entry was “inactive”.

As to CRTQMPSIFDL, the amyloid nucleation score entry was “inactive”.

In the case of DYRTH, the amyloid nucleation score result is “inactive”.

Regarding AFDYLVV, the amyloid nucleation score result was “inactive”.

Turning to QVPLCHMAGKQNLVSRAQTC, the amyloid nucleation score entry is “inactive”.

RTYYASWENDSMGAVSYCAS: the amyloid nucleation score result was “inactive”.

Turning to HRGLWTKATSLYYPFEMWMV, the amyloid nucleation score result was “inactive”.

Regarding DPVNLRC, the amyloid nucleation score entry is “inactive”.

ENMIRFLRDSLCGSFYNLPL: the amyloid nucleation score result is “inactive”.

For VCSCAHGHTGSEESRSVGSA, the amyloid nucleation score entry was “inactive”.

As to DVDRTSCGGVSVRV, the amyloid nucleation score result is “inactive”.

As to RCFRLIKVLKLLTVFEIITF, the amyloid nucleation score entry was “inactive”.

For the substance LTWYREDLYVRSWSCYWDQR, the amyloid nucleation score result is “inactive”.

Regarding CMSDF, the amyloid nucleation score entry was “inactive”.

For the substance KMSNGDTNDANVFIVRDSWL, the amyloid nucleation score entry is “inactive”.

Turning to WAVIFT, the amyloid nucleation score result is “inactive”.

LLLRFFRYLGYKLMRTIE: the amyloid nucleation score entry was “inactive”.

As to MYFYYYGSRYYNNSDCLLSS, the amyloid nucleation score entry is “inactive”.

Take VWWSYLQKSKILI: the amyloid nucleation score is 0.624 ± 0.2.

Take MSNGIVYNELFSVVRWS: the amyloid nucleation score was determined as 1.67 ± 0.071.

As to GCVAAMS, the amyloid nucleation score result was “inactive”.

As for FMIYYLGLFRR, the amyloid nucleation score entry is “inactive”.

The substance NMCSFFFRVSPVLQVQVSLV displayed an amyloid nucleation score of 1.61 ± 0.075.

The substance YGTNQMTLPKCRYWGFYREE came in with an amyloid nucleation score of -0.149 ± 0.7.

Regarding VLIRWRYEAYLSHCGSPCAS, the amyloid nucleation score result is “inactive”.

RMLLVEYCMFDFPDSFVRCN: the amyloid nucleation score is 0.131 ± 0.23.

As for CLFGLGVEAKVFIYQGDDQS, the amyloid nucleation score entry is “inactive”.

As for KVSCEYSNNKWF, the amyloid nucleation score entry is “inactive”.

QGMSAFYYVYGLKLWLHLLL: the amyloid nucleation score entry is “inactive”.

On to YCRCLCMLYG, for which the amyloid nucleation score entry is “inactive”.

For STLASSS, the amyloid nucleation score entry was “inactive”.

For the substance NYLRSVLMASGWYWILCIHF, the amyloid nucleation score entry is “inactive”.

LGITNGRL: the amyloid nucleation score result was “inactive”.

RFSSSSQPFYSFAIVRR: the amyloid nucleation score result was “inactive”.

As to LIFWRPIGDEHYLWPLPFYL, the amyloid nucleation score result is “inactive”.

On to HLRVMLLCFREYWDYAIMAL, for which the amyloid nucleation score result is “inactive”.

With THFYWADAVVMPAYRVIRRF, the amyloid nucleation score entry is “inactive”.

For the substance VFAAKGPTMYRSARVS, the amyloid nucleation score entry was “inactive”.

Turning to LLLTYFMMGYYVVWYVFGYW, the amyloid nucleation score entry was “inactive”.

With RMCLITTYTRVFLWLHT, the amyloid nucleation score result was “inactive”.

For the substance KTLTKSNIWIG, the amyloid nucleation score is -0.639 ± 0.87.

In the case of QWKSSLDWRRCW, the amyloid nucleation score result was “inactive”.

The substance SDVDDKVHKVHQQLVAILHF yielded an amyloid nucleation score of 0.624 ± 0.17.

Substance FIRVFYSCIYVDKVLCEGRL had an amyloid nucleation score of 1.5 ± 0.11.

IYGWGRRFRTRR: the amyloid nucleation score result is “inactive”.

The substance VTLLPVSVCINAFNLILGPF yielded an amyloid nucleation score of 3.08 ± 0.065.

The substance DLISEKEQEPGRD gave an amyloid nucleation score of 0.406 ± 0.21.

Consider YNDKGTV, for which the amyloid nucleation score entry was “inactive”.

As for SHRFLDNFRFTMYTDVLGIE, the amyloid nucleation score result was “inactive”.

With FATVDDMSTGFRYIFLITRA, the amyloid nucleation score result is “inactive”.

In turn, YRIVVVMMAIISTNDNIP had an amyloid nucleation score of 0.371 ± 0.26.

Consider YNRYV, for which the amyloid nucleation score entry is “inactive”.

For IIELYT, the amyloid nucleation score entry was “inactive”.

For WWSKVMYRSTPTLNAFKDRQ, the amyloid nucleation score entry was “inactive”.

RYLVRCSFWVGKNLV: the amyloid nucleation score amounted to 0.722 ± 0.2.

As for CTSTLMEFSFSYEWSNGCCS, the amyloid nucleation score entry was “inactive”.

As for YLLHK, the amyloid nucleation score entry is “inactive”.

Substance CVWAYLRLHGKWAF registered an amyloid nucleation score of 0.598 ± 0.34.

TRLWDKD: the amyloid nucleation score entry is “inactive”.

Consider IRCNRYVSL, for which the amyloid nucleation score entry is “inactive”.

Regarding FVCLSNIHMGTKTVILAMCL, the amyloid nucleation score result is “inactive”.

SGRVTRWITSAMVARN: the amyloid nucleation score entry is “inactive”.

For INWTRLRSRSEVWDTGRVWT, the amyloid nucleation score entry was “inactive”.

With HSVWVYKHGLCDMWGGLTLI, the amyloid nucleation score entry was “inactive”.

LYGLRHYILSEHFGGFVLVG: the amyloid nucleation score result is “inactive”.

Consider PEEDRFLTQSPMLRFIITHM, for which the amyloid nucleation score result is “inactive”.

LASSQLIYRTSRTCPTLLPL displayed an amyloid nucleation score of 1.3 ± 0.1.

With MEYRHCSFNRSRTRTLYRMN, the amyloid nucleation score result is “inactive”.

With RLWTFCFA, the amyloid nucleation score entry is “inactive”.

On to LSSYMDYGMSKVYVLWRSTW, for which the amyloid nucleation score was -0.117 ± 0.28.

Regarding CSRWMWPENYRFSSEVPWYI, the amyloid nucleation score result is “inactive”.

RNVWRCSLPYHFIF: the amyloid nucleation score result is “inactive”.

On to ACGCYVSEIPWLRDRIKFWQ, for which the amyloid nucleation score entry is “inactive”.

DVLLARCYNCLSAFRLNSLC: the amyloid nucleation score result was “inactive”.

On to GSWSKNMILHTLDLDCVAIV, for which the amyloid nucleation score result was “inactive”.

In the case of LLKRKLIVAFKKSMLFDFMV, the amyloid nucleation score entry was “inactive”.

As for QKMCKPVFV, the amyloid nucleation score entry is “inactive”.

Take NCKALGFNWALMGKSMSLRG: the amyloid nucleation score result was “inactive”.

In the case of SIALH, the amyloid nucleation score result was “inactive”.

As for GWFSYSRMSNCSLNSTK, the amyloid nucleation score entry is “inactive”.

Substance VKNTGLSSNHLEH registered an amyloid nucleation score of 1.11 ± 0.13.

Regarding NEWIKDINVI, the amyloid nucleation score entry was “inactive”.

As to YFLGWRYQCDIVIFWYQLRV, the amyloid nucleation score result was “inactive”.

Substance ISPAESFPSSPERIHIVD had an amyloid nucleation score of -0.789 ± 0.9.

As to VSTYGWAVRWGVFWGSMTYT, the amyloid nucleation score entry is “inactive”.

Take NKGSVDGYMFSTGVTFLMLE: the amyloid nucleation score result was “inactive”.

For HHLNSYFRISFI, the amyloid nucleation score result was “inactive”.

As for WDVYLPLVMSLK, the amyloid nucleation score was 1.29 ± 0.12.

On to GKSRFRLRDAWWRLVTQQRR, for which the amyloid nucleation score entry was “inactive”.

In the case of KQPCCNVFCC, the amyloid nucleation score was 2.42 ± 0.069.

In the case of LRMSTSGIPYYMSGMSYYNI, the amyloid nucleation score result was “inactive”.

Take CTSCILYFLLIYYHYNSS: the amyloid nucleation score result was “inactive”.

For GACVKDSLVAGNSSMTSAGL, the amyloid nucleation score was 3.9 ± 0.061.
